{"source": "patent US6461815", "key": {"[1]": {"test_system": "30S ribosomal subunit (mRNA-programmed, activated; ribonucleoprotein)", "assay": "FP", "details": "mnm5s2U34 and other native modifications; nitrocellulose filter binding (method is filter); poly(A)-programmed; CMN buffer 20 mM MgCl2, 100 mM NH4Cl, pH 7.2, 37 C then ice"}, "[2]": {"test_system": "30S ribosomal subunit (mRNA-programmed, activated; ribonucleoprotein)", "assay": "filter", "details": "CMN buffer 20 mM MgCl2, pH 7.2"}}}
{"substance": "E. coli tRNALys(SUU), native fully modified", "values": [{"measurement": "Kd", "setting": "[1]", "value": 70, "unit": "nM"}]}
{"substance": "UCAGACUUUUAAUCUGA [ASLLys3(SUU), s2U34 anticodon stem-loop]", "values": [{"measurement": "Kd", "setting": "[2]; s2U at tRNA position 34, poly(A)-programmed, also bound poly(AG)-programmed 30S", "value": 176, "unit": "nM"}]}
{"substance": "yeast ASLPhe(GAA), unmodified anticodon stem-loop", "values": [{"measurement": "Kd", "setting": "[2]; poly(U)-programmed", "value": 136, "unit": "nM"}]}
{"substance": "yeast tRNAPhe(GmAA), native", "values": [{"measurement": "Kd", "setting": "[2]; Gm34 and other native modifications, poly(U)-programmed", "value": 103, "unit": "nM"}]}
